B1: TCN-534 (5249_B02) (antibody, V domains shown)
VH: QVQLVQSGAEVKKPGSSVKVSCRESGGTFNGYTITWVRQAPGQGLEWMGGIIPMMGTVNYAQKLQGRVTITTDYFTKTAYMDLNNLRSEDTAMYYCVKIRYTGQQLLWGQGTLVTVSS
VL: DIQMTQSPSTLSASIGDRVTITCRASQSIASWLAWYQQKPGKAPKLLIYEAVNLESGVPSRFSGSGSGTDFTLTISSLQPDDFATYFCQHYGTISQTFGGGTKVEIK
B2: TCN-538 (3206_O17) (antibody, V domains shown)
VH: QITLKESGPTLVKPTQTLTLTCVFSGFSLSITGVRVGWIRQPPGKALEWLALISWDDEKHYSPSLQSRLTITKDTSKNQVVLTMTNLDPVDTATYYCARSTDRGHVLRYFGWMLPGDAFDVWGQGTMVTVSS
VL: DIVMTQSPDFLPVSLGERATINCKSSQRVLYSSNNKNYLAWYQLKPGQPPKLIIYWASTRESGVPDRFSGSGSGTEFTLTISSLQAEDVAVYYCQQYYSRPYTFGQGTKLEIK
B3: TCN-546 (5089_L08) (antibody, V domains shown)
VH: QVQLQQWGAGLLKPSETLSLTCGVYGGSLSDYYWSWIRQPPGKGLEWIGEINHSGGTNYNPSLKRRVTISVDTSKKQFSLKMNSVTAADTAVYYCARGTDPDTEVYCRAGNCAAFDFWGQGTLVTVSS
VL: EIVLTQSPGTLSLSPGERATLSCRASHFVIGRAVAWYQQKPGQAPRLLIYGASSRATGIPDRFSGSGSGTDFTLTISRLETEDFAVFYCQHYGSSPRYAFGQGTKLEIK
B4: TCN-523 (5248_A17) (antibody, V domains shown)
VH: QVQLVQSGAEVKKPGSSVKVSCKASGGSFSNYAFSWVRQAPGQGLEWMGGTIPLLGTTNYAQKFQGRVTISADQFTSTAYMELGSLRSEDTAVYYCTRRKMTTAFDSWGQGTLVTVSS
VL: QPVLTQPPSASASLGASVTLTCTLSSAYSNYKVDWYQQRPGKGPRFVMRVGTGGIVGSKGDGIPDRFSVLGSGLNRYLTIKNIQEEDESDYHCGADHGSGSNFVSPYVFGGGTKLTVL
B5: TCN-522 (3212_I12) (antibody, V domains shown)
VH: QVQLQQWGAGLLKPSETLSLTCTVSGGSLTDYSWNWIRQPPGKGLEWIGDTLHNGYTNYNPSLRGRVSISIDTSKNQVSLRLTSVTAADTALYYCARGSGGYGGFDYFGKLRTWDFWGQGTLVTVSS
VL: DIQLTQSPSSLSASVGDRVTITCRASQGIRNDLGWYQQKPGNAPKRLIFGASSLQSGVPSRFSGSGSGTEFTLTISSLQPEDFATYYCLQHNSYPYTFGQGTKLEIK

biological target: recombinant soluble homotrimeric HA of A/Anhui/1/05 (H5N1) (Influenza A virus A/Anhui/1/2005(H5N1)); experiment: HA microarray, BCC supernatant; conditions: remark: other sources report otherwise

Binder	Trimeric HA Binding: RLU
B1	6860 RLU
B2	689 RLU
B3	2040 RLU
B4	5700 RLU

biological target: recombinant soluble homotrimeric HA of A/California/4/09 (H1N1) (Influenza A virus A/California/04/2009(H1N1)); experiment: HA microarray, BCC supernatant; conditions: remark: other sources report otherwise

Binder	Trimeric HA Binding: RLU
B1	30100 RLU
B2	13800 RLU
B3	350 RLU
B4	34700 RLU
B5	5020 RLU

biological target: recombinant soluble homotrimeric HA of A/Hong Kong/2108/03 (H9N2) (Influenza A virus A/HK/2108/2003(H9N2)); experiment: HA microarray, BCC supernatant; conditions: remark: other sources report otherwise

Binder	Trimeric HA Binding: RLU
B1	165 RLU
B2	109 RLU
B3	13000 RLU
B4	189 RLU
B5	639 RLU

biological target: recombinant soluble homotrimeric HA of A/Indonesia/5/05 (H5N1) (Influenza A virus A/Indonesia/5/2005(H5N1)); experiment: HA microarray, BCC supernatant; conditions: remark: other sources report otherwise

Binder	Trimeric HA Binding: RLU
B1	46400 RLU
B2	26400 RLU
B3	18400 RLU
B4	45800 RLU
B5	67 RLU

biological target: recombinant soluble homotrimeric HA of A/Japan/305/57 (H2N2) (Influenza A virus A/Japan/305/1957(H2N2)); experiment: HA microarray, BCC supernatant; conditions: remark: other sources report otherwise

Binder	Trimeric HA Binding: RLU
B1	50600 RLU
B2	43000 RLU
B3	520 RLU
B4	5110 RLU
B5	989 RLU

biological target: recombinant soluble homotrimeric HA of A/Netherlands/219/03 (H7N7) (Influenza A virus A/Netherlands/219/03(H7N7)); experiment: HA microarray, BCC supernatant; conditions: remark: other sources report otherwise

Binder	Trimeric HA Binding: RLU
B1	4340 RLU
B3	1450 RLU
B4	2340 RLU

biological target: recombinant soluble homotrimeric HA of A/Solomon Islands/3/06 (H1N1) (Influenza A virus A/Solomon Islands/3/2006(H1N1)); experiment: HA microarray, BCC supernatant; conditions: remark: other sources report otherwise

Binder	Trimeric HA Binding: RLU
B1	44200 RLU
B2	33200 RLU
B4	37900 RLU
B5	38900 RLU

biological target: recombinant soluble homotrimeric HA of A/Vietnam/1203/04 (H5N1) (Influenza A virus A/VietNam/1203/2004(H5N1)); experiment: HA microarray, BCC supernatant; conditions: remark: other sources report otherwise

Binder	Trimeric HA Binding: RLU
B1	3440 RLU
B2	60 RLU
B3	349 RLU
B4	3380 RLU
B5	145 RLU

biological target: recombinant soluble homotrimeric HA of A/Wisconsin/67/05 (H3N2) (Influenza A virus A/Wisconsin/67/2005(H3N2)); experiment: HA microarray, BCC supernatant; conditions: remark: other sources report otherwise

Binder	Trimeric HA Binding: RLU
B1	7980 RLU
B2	6900 RLU
B3	30200 RLU

biological target: recombinant soluble homotrimeric HA of A/chicken/Vietnam/NCVD-016/08 (H5N1) (Influenza A virus A/chicken/Vietnam/NCVD-016/2008(H5N1)); experiment: HA microarray, BCC supernatant; conditions: remark: other sources report otherwise

Binder	Trimeric HA Binding: RLU
B1	56600 RLU
B2	37300 RLU
B3	421 RLU
B4	48900 RLU

biological target: recombinant soluble homotrimeric HA of A/duck/Yangzhou/02/05 (H8N4) (Influenza A virus A/duck/Yangzhou/02/2005(H8N4)); experiment: HA microarray, BCC supernatant; conditions: remark: other sources report otherwise

Binder	Trimeric HA Binding: RLU
B1	46500 RLU
B2	6120 RLU
B3	487 RLU
B5	502 RLU

biological target: recombinant soluble homotrimeric HA of A/northern shoveler/California/HKWF115/07 (H6) (Influenza A virus A/northern shoveler/California/HKWF115/2007(H6N1)); experiment: HA microarray, BCC supernatant; conditions: remark: other sources report otherwise

Binder	Trimeric HA Binding: RLU
B1	52400 RLU
B2	17400 RLU
B4	46900 RLU

biological target: recombinant homotrimeric HA A/Anhui/1/05 H5N1 (Influenza A virus A/Anhui/1/2005(H5N1)); experiment: protein microarray, purified IgG, trimeric HA; conditions: remark: other sources report otherwise

Binder	Trimeric HA Binding: RLU
B1	1900 RLU
B3	21400 RLU
B4	7240 RLU
B5	5260 RLU

biological target: recombinant homotrimeric HA A/California/4/09 H1N1 (Influenza A virus A/California/04/2009(H1N1)); experiment: protein microarray, purified IgG, trimeric HA; conditions: remark: other sources report otherwise

Binder	Trimeric HA Binding: RLU
B1	20700 RLU
B2	4810 RLU
B3	277 RLU
B4	19500 RLU
B5	13900 RLU

biological target: recombinant homotrimeric HA A/Egypt/3300-NAMRU3/08 H5N1 (Influenza A virus A/Egypt/3300-NAMRU3/2008(H5N1)); experiment: protein microarray, purified IgG, trimeric HA; conditions: remark: other sources report otherwise

Binder	Trimeric HA Binding: RLU
B1	18200 RLU
B2	7290 RLU
B3	11200 RLU
B4	21300 RLU
B5	11300 RLU

biological target: recombinant homotrimeric HA A/Hong Kong/1073/99 H9N2 (Influenza A virus A/Hong Kong/1073/99 (H9N2)); experiment: protein microarray, purified IgG, trimeric HA; conditions: remark: other sources report otherwise

Binder	Trimeric HA Binding: RLU
B1	918 RLU
B2	1270 RLU
B3	505 RLU
B4	2130 RLU
B5	5050 RLU

biological target: recombinant homotrimeric HA A/Hong Kong/156/97 H5N1 (Influenza A virus A/Hong Kong/156/97 (H5N1)); experiment: protein microarray, purified IgG, trimeric HA; conditions: remark: other sources report otherwise

Binder	Trimeric HA Binding: RLU
B1	13200 RLU
B2	7080 RLU
B3	890 RLU
B4	5810 RLU
B5	14800 RLU

biological target: recombinant homotrimeric HA A/Hong Kong/2108/03 H9N2 (Influenza A virus A/HK/2108/2003(H9N2)); experiment: protein microarray, purified IgG, trimeric HA; conditions: remark: other sources report otherwise

Binder	Trimeric HA Binding: RLU
B1	172 RLU
B2	172 RLU
B3	307 RLU
B4	163 RLU

biological target: recombinant homotrimeric HA A/Indonesia/5/05 H5N1 (Influenza A virus A/Indonesia/5/2005(H5N1)); experiment: protein microarray, purified IgG, trimeric HA; conditions: remark: other sources report otherwise

Binder	Trimeric HA Binding: RLU
B1	19500 RLU
B2	7450 RLU
B3	147 RLU
B4	16900 RLU
B5	12500 RLU

biological target: recombinant homotrimeric HA A/Japan/305/57 H2N2 (Influenza A virus A/Japan/305/1957(H2N2)); experiment: protein microarray, purified IgG, trimeric HA; conditions: remark: other sources report otherwise

Binder	Trimeric HA Binding: RLU
B1	29100 RLU
B2	20500 RLU
B3	503 RLU
B4	15300 RLU
B5	9740 RLU

biological target: recombinant homotrimeric HA A/Netherlands/219/03 H7N7 (Influenza A virus A/Netherlands/219/03(H7N7)); experiment: protein microarray, purified IgG, trimeric HA; conditions: remark: other sources report otherwise

Binder	Trimeric HA Binding: RLU
B1	3420 RLU
B2	446 RLU
B3	386 RLU

biological target: recombinant homotrimeric HA A/Solomon Islands/3/06 H1N1 (Influenza A virus A/Solomon Islands/3/2006(H1N1)); experiment: protein microarray, purified IgG, trimeric HA; conditions: remark: other sources report otherwise

Binder	Trimeric HA Binding: RLU
B1	11400 RLU
B2	9740 RLU
B4	5130 RLU
B5	19100 RLU

biological target: recombinant homotrimeric HA A/South Carolina/1/18 H1N1 (Influenza A virus A/South Carolina/1/18 (H1N1)); experiment: protein microarray, purified IgG, trimeric HA; conditions: remark: other sources report otherwise

Binder	Trimeric HA Binding: RLU
B1	9240 RLU
B2	6770 RLU
B3	88 RLU
B4	9720 RLU
B5	4500 RLU

biological target: recombinant homotrimeric HA A/Vietnam/1203/04 H5N1 (Influenza A virus A/VietNam/1203/2004(H5N1)); experiment: protein microarray, purified IgG, trimeric HA; conditions: remark: other sources report otherwise

Binder	Trimeric HA Binding: RLU
B1	25900 RLU
B2	14000 RLU
B3	1200 RLU
B4	20000 RLU
B5	11300 RLU

biological target: recombinant homotrimeric HA A/Wisconsin/67/05 H3N2 (Influenza A virus A/Wisconsin/67/2005(H3N2)); experiment: protein microarray, purified IgG, trimeric HA; conditions: remark: other sources report otherwise

Binder	Trimeric HA Binding: RLU
B3	25500 RLU
B5	108 RLU

biological target: recombinant homotrimeric HA A/chicken/Vietnam/NCVD-016/08 H5N1 (Influenza A virus A/chicken/Vietnam/NCVD-016/2008(H5N1)); experiment: protein microarray, purified IgG, trimeric HA; conditions: remark: other sources report otherwise

Binder	Trimeric HA Binding: RLU
B1	5170 RLU
B2	1060 RLU
B3	207 RLU
B4	4960 RLU
B5	1960 RLU

biological target: recombinant homotrimeric HA A/northern shoveler/California/HKWF115/07 H6N4 (Influenza A virus A/northern shoveler/California/HKWF115/2007(H6N1)); experiment: protein microarray, purified IgG, trimeric HA; conditions: remark: other sources report otherwise

Binder	Trimeric HA Binding: RLU
B1	21700 RLU
B2	11400 RLU
B4	3370 RLU
B5	3180 RLU

From US20150086555A1
